Experimental data published in US20220073643A1 (NANJING GENSCRIPT BIOTECH, published 2022).
Where a chain is given by its changes, count along the chain named.

B1: 243B4F7 (antibody, V domains shown)
VH: QAYLQQSGAELVRSGASVKMSCKASGYTFTSHNLHWVKQTPGQGLEWIGYIYPGNGNTNYNQKFKGKATLTADTSSSTAYMQISSLTSEDSAVYFCTRDYYGNSFAYWGQGTLVTVSA
VL: DIVMTQSPSSLTEKAGERVSMSCKSSQSLFNSGNQKNYLTWYQQKPGQPPKLLIYWASTRESGVPDRFTGSGSGTDFTLTISSVQAEDLAVYYCQNNYWFPFTFGAGTKLELK
B2: 232C5E3 (antibody, V domains shown)
VH: B1 VH with L34I, V37I, Q43K, N57G, G66A, T97A
VL: B1 VL with V3M, K14T, R18K, F30L, T69S, N97G, W99R
notes: mouse hybridoma mAb
B3: 244A1B8 (antibody, V domains shown)
VH: B1 VH with L34I, N57A, T58P, K65R, T97A, A106V
VL: B1 VL with R18K, F30L, N97D, W99R, F100Y
B4: 243F6D2 (antibody, V domains shown)
VH: B1 VH with K23R, L34M, N57G, N59Y, T97A, A106V
VL: B1 VL with I2V, A15T, R18K, F30L, V84L, A86T, W99R, F100Y
B5: 200A4H8 (antibody, V domains shown)
VH: QVQLKQSGPGLVQPSQSLSITCTVSGFSLTRYGVHWVRQSPGKGLEWLGVIWSGGNTDYNAAFISRLNIRKDNSKSQVFFKMNSLKPNDTAIYYCARAAYFGNSFDYWGQGTTLTVSS
VL: B1 VL with T12P, E13V, K14T, R18K, S20T, F30L, E61D, W99I, F100Y, F102L
notes: mouse hybridoma mAb
B6: 248E6A7 (antibody, V domains shown)
VH: B1 VH with K23R, L34M, N59Y, G66V, S77N, S84N, T97V, A106V
VL: DVVMTQSPSSLTEKTGEKVTMTCKSSQSLLNSGNQKNYLAWYQQKPGQPPKLLIYWASTRESGVPDRFIGSGSGTDFTLTISSLQTEDLAVYYCQNNYMYPFTFGAGTKLELK
B7: 181C7B2 (antibody, V domains shown)
VH: B5 VH with R31Y, S53R, N68S, R70N, K86Q, F101Y, S104C
VL: B1 VL with E13V, K14T, R18K, S20T, F30L, W99I, F100Y, F102L
notes: mouse hybridoma mAb
B8: 246B5F2 (antibody, IgM, V domains shown)
VH: EVMLVESGGGLMKPGGSLKLSCAASEFTFSNYAMSWVRQTPEKRLEWVATISSGRSSTYYPDSVKGRFTISRDNAKNTLYLQMSSLRSEDTAMYYCAGLGRGNAMEYWGQGTSVTVSS
VL: DIVMTQSPSSLTVTAGEKVTLSCKSSQSLLNSGNQKNYLTWYQQKPGQPPKLLIYWASTRESGVPDRFTGSGSGTDFILTINSVQAEDLAVYYCQNAYSYPFTFGSGTKLEIK
B9: 201F4H6 (antibody, V domains shown)
VH: QVQLKESGPGLVAPSQSLSITCTVSGFSLTSYGVSWVRQPPGKGLECLGVIWAGGNTNYNSALMSRLSISKDKSKSQVFLKMNSLQTDDTAMYYCARVYYGNAMDYWGQGTSVTVSS
VL: B8 VL with L21M, N37S, K45R, I78T, N82S, Y93F, A97V, S99F, Y100F, I112T
notes: mouse hybridoma mAb
B10: 207F8G5 (antibody, V domains shown)
VH: QAYLQQSGAELVRSGASVKMSCKASGFTFTSYNIHWVKQTPGQGLEWIGYISPGNGGSNYNLKFKDKATLTSATSSSTAYMQISSLTSEDSAVYFCATGRGFAYWGQGTLVTVSA
VL: DIVMTQSPSSLTVTPGEKVTMSCKSSQSLFNSGNQKNYLIWYQQKPGQPPKLLIYRASTRDSGVPDRFTGSGSGTDFTLTISNVQAEDLAIYYCQNDYSYPLTFGAGTKLELK
notes: mouse hybridoma mAb
B11: 217D9G2 (antibody, V domains shown)
VH: B10 VH with K63N, S72A, S77T
VL: B10 VL with K24R, I91V
notes: mouse hybridoma mAb

Columns and labels:
[1] = target: human Claudin18.2 (human); assay: cell-based or functional assay
[2] = target: T1, human Claudin18.2 (human); assay: cell ELISA, Claudin18.2-expressing HEK293T cells
T1 construct: also called CLDN18.2
Experimental: To determine protein binding EC₅₀ by Cell ELISA, 96-well U-bottom microplates were pre-blocked with blocking buffer (5% MPBS, 1×PBS with 5% skim milk) overnight at 4° C. On the next day, the Claudin18.2-expressing HEK293T stable cell line was suspended at 1.5×10⁶ cells/ml in blocking buffer, added to the plate in 100 μl/well and incubated at room temperature for 1 hour.
Raw data were plotted with GraphPad Prism v6.02 software with four parameters, best-fit value program to analyze the EC₅₀.

CDC % Relative activity [1] [%]	CDC EC50 [1] [µg/mL]	EC50 [2] [nM]	Binder
149	0.941	–	B1
–	–	0.651	B2
102	1.39	–	B3
70.5	2	–	B4
–	–	1.01	B5
161	0.876	–	B6
–	–	1.07	B7
787	0.179	–	B8
–	–	0.283	B9
–	–	0.822	B10
–	–	0.908	B11
